Data from patent JPH09322796A (dated 1997).

T1: Fas抗原 on the human lymphocyte cell line HPB−ALL (human, UniProt P25445 26-335)
T1 sequence (looked up): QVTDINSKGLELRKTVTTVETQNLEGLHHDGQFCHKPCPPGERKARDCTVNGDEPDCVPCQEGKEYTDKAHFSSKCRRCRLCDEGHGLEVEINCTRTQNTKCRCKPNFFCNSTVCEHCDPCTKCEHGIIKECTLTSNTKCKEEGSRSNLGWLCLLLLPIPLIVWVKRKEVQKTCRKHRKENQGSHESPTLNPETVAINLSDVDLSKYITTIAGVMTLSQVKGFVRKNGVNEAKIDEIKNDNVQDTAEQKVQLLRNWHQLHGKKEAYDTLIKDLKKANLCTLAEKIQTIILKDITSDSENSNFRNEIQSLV

B1: マウス抗ヒトFasモノクローナル抗体CH11 (mouse anti-human Fas monoclonal antibody CH11, purified from hybridoma culture supernatant) (antibody, mouse IgM)
heavy: EVQLQQSGPELVKPGASVKISCKASGYTFTDYNMHWVKQSHGKSLEWIGYIYPYNGGTGYNQKFKSKATLTVDNSSSTAYMELRSLTSEDSAVYYCARSYYAMDYWGQGTSVTVSSESQSFPNVFPLVSCESPLSDKNLVAMGCLARDFLPSTISFTWNYQNNTEVIQGIRTFPTLRTGGKYLATSQVLLSPKSILEGSDEYLVCKIHYGGKNRDLHVPIPAVAEMNPNVNVFVPPRDGFSGPAPRKSKLICEATNFTPKPITVSWLKDGKLVESGFTTDPVTIENKGSTPQTYKVISTLTISEIDWLNLNVYTCRVDHRGLTFLKNVSSTCAASPSTDILTFTIPPSFADIFLSKSANLTCLVSNLATYETLNISWASQSGEPLETKIKIMESHPNGTFSAKGVASVCVEDWNNRKEFVCTVTHRDLPSPQKKFISKPNEVHKHPPAVYLLPPAREQLNLRESATVTCLVKGFSPADISVQWLQRGQLLPQEKYVTSAPMPEPGAPGFYFTHSILTVTEEEWNSGETYTCVVGHEALPHLVTERTVDKSTGKPTLYNVSLIMSDTGGTCY
light: DVVMTQSPLSLPVSLGDQASISCRSSKSLVHSNGNTYLHWYLQKPGQSPKLLIYKVSNRFSGVPDRFSGSGSGTDFTLKISRVEAEDLGVYFCSQSTHVPPAFGGGTKLEIKRADAAPTVSIFPPSSEQLTSGGASVVCFLNNFYPKDINVKWKIDGSERQNGVLNSWTDQDSKDSTYSMSSTLTLTKDEYERHNSYTCEATHKTSTSPIVKSFNRNEC
chain: DDEATILADNKCMCTRVTSRIIPSTEDPNEDIVERNIRIVVPLNNRENISDPTSPLRRNFVYHLSDVCKKCDPVEVELEDQVVTATQSNICNEDDGVPETCYMYDRNKCYTTMVPLRYHGETKMVQAALTPDSCYPD
B2: pHEX126のみで形質転換したCOS−1細胞の培養上清[B] (CH11 H chain expressed alone) (other)
heavy: B1 heavy
B3: pLEX004のみで形質転換したCOS−1細胞の培養上清[C] (CH11 L chain expressed alone) (other)
light: B1 light
B4: pJEX004のみで形質転換したCOS−1細胞の培養上清[D] (CH11 J chain expressed alone) (other)
chain: B1 chain
B5: 上清[E](pHEX126+pLEX004)に含まれる生産物 (recombinant CH11 H chain + L chain without J chain, COS-1 culture supernatant) (antibody)
heavy: B1 heavy
light: B1 light
B6: 上清[F](pHEX126、pLEX004+pJEX004)に含まれる生産物 (recombinant CH11 H chain + L chain + J chain, COS-1 culture supernatant) (antibody)
heavy: B1 heavy
light: B1 light
chain: B1 chain

target: T1, Fas抗原 on the human lymphocyte cell line …; assay: cell-based or functional assay

Binder	ED 50 (ng/ml) (MTT assay, HPB-ALL cells))	OD 590 −OD 620 (MTT assay, HPB-ALL cells, 12 h; higher = more living cells)	cytotoxic activity relative to CH11 or to the product of supernatant [F]
B1	21.2 ng/mL	–	–
B2	–	0.876	–
B3	–	0.887	–
B4	–	0.883	–
B5	4.5 ng/mL	0.176	~5 fold
B6	22.9 ng/mL	0.242	–

target: ヒトFas抗原の細胞外領域とマウスインターロイキン3受容体の細胞外領域との融合タンパク質 (fusion of human Fas extracellular region and mouse IL-3 receptor extracellular region, from phFas-AIC2) (human; mouse) (UniProt P25445); assay: ELISA, COS-1 supernatant with human Fas-mouse IL-3 receptor fusion coated, detection with peroxidase-labelled rat anti-mouse IgM; PBS blank 0.104

Binder	OD 405 −OD 492
B1	0.445
B2	0.109
B3	0.135
B4	0.107
B5	0.33
B6	0.202
